Experimental data taken from the supplement of paper PMC9112550, “Optimization of the antimicrobial peptide Bac7 by deep mutational scanning” (BMC Biology, 2022).

Tested on: Escherichia coli TOP10
Assay: shrunken log2 fold change of peptide-encoding DNA abundance (4.5 h post-induction vs induction); higher = less antimicrobial activity (less host growth inhibition)
Conditions: time post-induction: 4.5 h; library: site-saturation at positions 5, 18, 19, 20
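Also: peptides expressed intracellularly from a pBAD plasmid library in pooled LB shake-flask culture, induced with 0.3% L-arabinose, DNA abundance read by NGS, three biological replicates, DESeq2 with apeglm shrinkage.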

Sequence	shrunken log2 fold change
RRIRQRPPRLPRPRPRPTFTPRP	-0.222
RRIRNRPPRLPRPRPRPKMHPRP	-0.0913
RRIRWRPPRLPRPRPRPVPMPRP	0.221
RRIRVRPPRLPRPRPRPRDYPRP	-0.0816
RRIRQRPPRLPRPRPRPLSTPRP	0.175
RRIRPRPPRLPRPRPRPPIQPRP	0.00728
RRIRNRPPRLPRPRPRPWWHPRP	-0.104
RRIRTRPPRLPRPRPRPDTNPRP	-0.558
RRIRWRPPRLPRPRPRPRVEPRP	0.0508
RRIRCRPPRLPRPRPRPIASPRP	-0.0344
RRIRCRPPRLPRPRPRPLYWPRP	-0.201
RRIRSRPPRLPRPRPRPPSKPRP	0.0454
RRIRFRPPRLPRPRPRPFGMPRP	-0.223
RRIRSRPPRLPRPRPRPSYHPRP	-0.836
RRIRLRPPRLPRPRPRPKKAPRP	-0.0389
RRIRNRPPRLPRPRPRPGAGPRP	0.234
RRIRWRPPRLPRPRPRPTSIPRP	-0.22
RRIRQRPPRLPRPRPRPNCSPRP	-0.0334
RRIRFRPPRLPRPRPRPRDSPRP	-0.051
RRIRKRPPRLPRPRPRPKCPPRP	0.165
RRIRLRPPRLPRPRPRPLCGPRP	0.161
RRIRDRPPRLPRPRPRPILHPRP	-0.0215
RRIRARPPRLPRPRPRPFISPRP	0.112

Sequence	shrunken log2 fold change
RRIRDRPPRLPRPRPRPWTSPRP	0.21
RRIRRRPPRLPRPRPRPTYFPRP	0.0897
RRIRRRPPRLPRPRPRPNRSPRP	0.339
RRIRVRPPRLPRPRPRPQHQPRP	-0.571
RRIRYRPPRLPRPRPRPLRAPRP	0.669
RRIRERPPRLPRPRPRPMHQPRP	-0.452
RRIRDRPPRLPRPRPRPKMKPRP	-0.42
RRIRNRPPRLPRPRPRPEAKPRP	0.302
RRIRDRPPRLPRPRPRPHWDPRP	-0.0788
RRIRGRPPRLPRPRPRPDLGPRP	0.688
RRIRTRPPRLPRPRPRPTEIPRP	-0.119
RRIRARPPRLPRPRPRPHHHPRP	-0.469
RRIRGRPPRLPRPRPRPKAWPRP	0.922
RRIRPRPPRLPRPRPRPFKHPRP	0.0339
RRIRPRPPRLPRPRPRPEYWPRP	-0.035
RRIRHRPPRLPRPRPRPRAPPRP	0.741
RRIRHRPPRLPRPRPRPELFPRP	0.458
RRIRYRPPRLPRPRPRPHQCPRP	-0.0856
RRIRSRPPRLPRPRPRPNTAPRP	-0.0399
RRIRSRPPRLPRPRPRPFPIPRP	0.0325
RRIRNRPPRLPRPRPRPQWQPRP	-0.0605
RRIRRRPPRLPRPRPRPPAPPRP	1.13
RRIRDRPPRLPRPRPRPEHVPRP	0.212

Sequence	shrunken log2 fold change
RRIRMRPPRLPRPRPRPIWQPRP	-0.224
RRIRCRPPRLPRPRPRPKIHPRP	-0.558
RRIRGRPPRLPRPRPRPNNNPRP	-0.0957
RRIRARPPRLPRPRPRPYNKPRP	-0.731
RRIRLRPPRLPRPRPRPIKRPRP	-0.466
RRIRSRPPRLPRPRPRPSPPPRP	0.154
RRIRGRPPRLPRPRPRPMIIPRP	0.0975
RRIRTRPPRLPRPRPRPQLNPRP	-0.33
RRIRFRPPRLPRPRPRPPPYPRP	0.445
RRIRFRPPRLPRPRPRPHTHPRP	-0.618
RRIRRRPPRLPRPRPRPVNNPRP	-0.12
RRIRDRPPRLPRPRPRPHKWPRP	-0.202
RRIRSRPPRLPRPRPRPMEWPRP	0.199
RRIRKRPPRLPRPRPRPVFWPRP	0.666
RRIRFRPPRLPRPRPRPWSMPRP	-0.548
RRIRIRPPRLPRPRPRPYVCPRP	0.0199
RRIRERPPRLPRPRPRPQWLPRP	-0.168
RRIRERPPRLPRPRPRPQLDPRP	0.115
RRIRIRPPRLPRPRPRPYLTPRP	-1.45
RRIRDRPPRLPRPRPRPAVDPRP	-0.0491
RRIRIRPPRLPRPRPRPMAQPRP	0.00812
RRIRHRPPRLPRPRPRPGPVPRP	0.26
RRIRTRPPRLPRPRPRPLVQPRP	0.149

Sequence	shrunken log2 fold change
RRIRHRPPRLPRPRPRPINVPRP	-1.14
RRIRMRPPRLPRPRPRPNESPRP	0.923
RRIRHRPPRLPRPRPRPDLEPRP	-0.00264
RRIRARPPRLPRPRPRPYNMPRP	-0.809
RRIRPRPPRLPRPRPRPIWNPRP	-0.282
RRIRRRPPRLPRPRPRPPFPPRP	0.645
RRIRLRPPRLPRPRPRPECRPRP	2.41
RRIRMRPPRLPRPRPRPRWVPRP	0.4
RRIRIRPPRLPRPRPRPKHFPRP	-0.292
RRIRLRPPRLPRPRPRPEEFPRP	-0.0121
RRIRTRPPRLPRPRPRPPKGPRP	0.107
RRIRKRPPRLPRPRPRPGTHPRP	0.213
RRIRWRPPRLPRPRPRPKDMPRP	-0.0331
RRIRQRPPRLPRPRPRPTEIPRP	-0.223
RRIRVRPPRLPRPRPRPHFDPRP	0.0221
RRIRHRPPRLPRPRPRPLENPRP	0.00854
RRIRDRPPRLPRPRPRPTWFPRP	0.295
RRIRRRPPRLPRPRPRPSTKPRP	0.068
RRIRPRPPRLPRPRPRPMLNPRP	-0.164
RRIRIRPPRLPRPRPRPQNGPRP	-0.294
RRIRKRPPRLPRPRPRPGFIPRP	-0.307
RRIRRRPPRLPRPRPRPPDMPRP	0.432
